± gives the uncertainty stated by the source.

The data set in a line: self-splicing fitness, log relative to wild type (ln ratio); higher = more splicing; Tetrahymena group I intron in knt gene, E. coli kanamycin selection, DiMSum; sequences stand for … in CUCUCU…GGAGGGAAAAGUUAUCAGGCAUGCACCUGGUAGCUAGUCUUUAAACCAAUAGAUUGCAUCGGUUUAAAAGGCAAGACCGUCAAAUUGCGGGAAAGGGGUCAACAGCCGUUCAGUACCAAGUCUCAGGGGAAACUUUGAGAUGGCCUUGCAAAGGGUAUGGUAAUAAGCUGACGGACAUGGUCCUAACCACGCAGCCAAGUCCUAAGUCAACAGAUCUUCUGUUGAUAUGGAUGCAGUUCACAGACUAAAUGUCGGUCGGGGAAGAUGUAUUCUUCUCAUAAGAUAUAGUCGGACCUCUCCUUAAUGGGAGCUAGCGGAUGAAGUGAUGCAACACUGGAGCCGCUGGGAACUAAUUUGUAUGCGAAAGUAUAUUGAUUAGUUUUGGAGUACUCGUGGUCG
A digest of the protocol:
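The eight P1ex-region nucleotides of an intron in the knt kanamycin-resistance gene on pET-22b(+) were all randomised and the library put into E. coli BL21(DE3). Six replicate transformations were grown overnight at 37°C or 30°C on LB agar with or without 25 μg/mL kanamycin, together with 100 μg/mL carbenicillin, 50 μM IPTG and 0.2% rhamnose. Colonies were pooled and amplicon-sequenced on an Illumina HiSeq 2500. Fitness from DiMSum is the error-weighted combination of wild-type-normalised replicate fold changes, kanamycin over none.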

Consider GAAAAGCAAUAUUACGUUGA, for which the “self-splicing fitness (ln)” value runs as follows: (30 °C) -2.87 ± 0.15; (37 °C) -1.24 ± 0.1.

Take GAAAAGCAAUAUUACGUUUG: the “self-splicing fitness (ln)” value by setting is: (30 °C) -2.71 ± 0.097; (37 °C) -2.02 ± 0.15.

GAACAGCAAUAUUACGAAAG: the “self-splicing fitness (ln)” value is, setting by setting: (30 °C) -3.62 ± 0.18; (37 °C) -1.58 ± 0.13.

For the sequence GAACAGCAAUAUUACGAAGU, the “self-splicing fitness (ln)” value (30 °C) was -2.04 ± 0.12 and the “self-splicing fitness (ln)” value (37 °C) is -0.944 ± 0.15.

Consider GAACAGCAAUAUUACGAAUC, for which the “self-splicing fitness (ln)” value (30 °C) is -1.76 ± 0.08 and the “self-splicing fitness (ln)” value (37 °C) was -1.9 ± 0.13.

Take GAACAGCAAUAUUACGAGAC: the “self-splicing fitness (ln)” value was -2.13 ± 0.22 (30 °C) and -1.21 ± 0.18 (37 °C).

For GAACAGCAAUAUUACGCACA, the “self-splicing fitness (ln)” value was -0.348 ± 0.082 (30 °C) and -0.338 ± 0.094 (37 °C).

In the case of GAACAGCAAUAUUACGCAGU, the “self-splicing fitness (ln)” value by setting is: (30 °C) -3.37 ± 0.11; (37 °C) -2.5 ± 0.13.

Take GAACAGCAAUAUUACGCCGA: the “self-splicing fitness (ln)” value is, setting by setting: (30 °C) -0.857 ± 0.12; (37 °C) -0.581 ± 0.1.

Regarding GAACAGCAAUAUUACGCGAA, the “self-splicing fitness (ln)” value (30 °C) was -0.881 ± 0.086 and the “self-splicing fitness (ln)” value (37 °C) is -0.124 ± 0.12.

For the sequence GAACAGCAAUAUUACGCGCC, the “self-splicing fitness (ln)” value reads like this: (30 °C) -0.957 ± 0.13; (37 °C) -0.851 ± 0.15.

In the case of GAACAGCAAUAUUACGCGCU, the “self-splicing fitness (ln)” value (30 °C) is -0.914 ± 0.088 and the “self-splicing fitness (ln)” value (37 °C) is -0.133 ± 0.11.

With GAACAGCAAUAUUACGCGGA, the “self-splicing fitness (ln)” value was -1.94 ± 0.082 (30 °C) and -0.737 ± 0.075 (37 °C).

On to GAACAGCAAUAUUACGCUCU, for which the “self-splicing fitness (ln)” value (30 °C) is -1.37 ± 0.17 and the “self-splicing fitness (ln)” value (37 °C) is -0.466 ± 0.15.

As to GAACAGCAAUAUUACGGAAG, the “self-splicing fitness (ln)” value was -3.32 ± 0.14 (30 °C) and -1.73 ± 0.16 (37 °C).

Regarding GAACAGCAAUAUUACGGACU, the “self-splicing fitness (ln)” value is -1.28 ± 0.085 (30 °C) and -0.212 ± 0.097 (37 °C).

On to GAACAGCAAUAUUACGGGAU, for which the “self-splicing fitness (ln)” value (30 °C) is -2.26 ± 0.084 and the “self-splicing fitness (ln)” value (37 °C) was -1.05 ± 0.079.

In the case of GAACAGCAAUAUUACGGGUG, the “self-splicing fitness (ln)” value was -1.88 ± 0.072 (30 °C) and -1.59 ± 0.092 (37 °C).

Consider GAACAGCAAUAUUACGGUGG, for which the “self-splicing fitness (ln)” value (30 °C) was -2 ± 0.095 and the “self-splicing fitness (ln)” value (37 °C) was -1.19 ± 0.1.

For the sequence GAACAGCAAUAUUACGGUGU, the “self-splicing fitness (ln)” value was -2.02 ± 0.066 (30 °C) and -0.373 ± 0.069 (37 °C).

For GAACAGCAAUAUUACGUACC, the “self-splicing fitness (ln)” value is -0.94 ± 0.27 (30 °C) and 0.0452 ± 0.3 (37 °C).

Take GAACAGCAAUAUUACGUUAG: the “self-splicing fitness (ln)” value reads like this: (30 °C) -0.954 ± 0.047; (37 °C) -0.969 ± 0.067.

Take GAACAGCAAUAUUACGUUCA: the “self-splicing fitness (ln)” value by setting is: (30 °C) -2.31 ± 0.1; (37 °C) -1.49 ± 0.087.

With GAACAGCAAUAUUACGUUCC, where the note is “30 °C”, the “self-splicing fitness (ln)” value is -2.88 ± 0.36.

Take GAACAGCAAUAUUACGUUCG: the “self-splicing fitness (ln)” value is, setting by setting: (30 °C) -2.12 ± 0.099; (37 °C) -1.38 ± 0.096.

Take GAACAGCAAUAUUACGUUUA: the “self-splicing fitness (ln)” value by setting is: (30 °C) -0.588 ± 0.07; (37 °C) -0.031 ± 0.078.

As to GAAGAGCAAUAUUACGACAG, the “self-splicing fitness (ln)” value runs as follows: (30 °C) -3.36 ± 0.29; (37 °C) -2.76 ± 0.28.

For GAAGAGCAAUAUUACGACUC, the “self-splicing fitness (ln)” value is -0.32 ± 0.095 (30 °C) and -0.113 ± 0.11 (37 °C).

Regarding GAAGAGCAAUAUUACGACUG, the “self-splicing fitness (ln)” value is -3.86 ± 0.39 (30 °C) and -1.88 ± 0.16 (37 °C).

For GAAGAGCAAUAUUACGAUAU, the “self-splicing fitness (ln)” value (30 °C) was -4.88 ± 0.36 and the “self-splicing fitness (ln)” value (37 °C) is -1.06 ± 0.14.

For the sequence GAAGAGCAAUAUUACGCCUC, the “self-splicing fitness (ln)” value by setting is: (30 °C) -3.27 ± 0.32; (37 °C) -2.96 ± 0.32.

Take GAAGAGCAAUAUUACGCGGA: the “self-splicing fitness (ln)” value is, setting by setting: (30 °C) -2.64 ± 0.17; (37 °C) -2.37 ± 0.21.

For the sequence GAAGAGCAAUAUUACGCGUA, the “self-splicing fitness (ln)” value is, setting by setting: (30 °C) -3.68 ± 0.37; (37 °C) -2.05 ± 0.22.

Source of the values: the supplement of paper PMC7877785.
